Assay results from PMC9313502 (Advanced Science, 2022).

Biological target: Biotinylated recombinant human TNF‐α (human, UniProt P01375 77-233, biotin on primary amines (lysine conjugation, NHS-PEG4-biotin))
Test: ELISA; sparsely biotinylated hTNF-α (7.5 nM) held on avidin-coated 96-well plates; hTNFR1-ECD-HRP in solution, read at 450 nm with TMB; apparent EC50
Settings: both partners purified

Chain of Biotinylated recombinant human TNF‐α (P01375 77-233): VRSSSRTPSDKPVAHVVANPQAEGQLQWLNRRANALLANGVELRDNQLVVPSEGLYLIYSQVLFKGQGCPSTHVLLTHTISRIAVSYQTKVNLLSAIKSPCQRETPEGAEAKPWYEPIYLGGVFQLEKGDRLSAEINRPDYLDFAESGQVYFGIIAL

B1: HRP‐tagged human TNF‐α receptor 1 extracellular domain (receptor)
chain: RDSVCPQGKYIHPQNNSICCTKCHKGTYLYNDCPGPGQDTDCRECESGSFTASENHLRHCLSCSKCRKEMGQVEISSCTVDRDTVCGCRKNQYRHYWSENLFQCFNCSLCLNGTVHLSCQEKQNTVCTCHAGFFLRENECVSCSNCKKSLECTKLCLPQIEN
modifications: conjugated to horse‐radish peroxidase (HRP Conjugation Kit, Proteintech PK20001)
EC50: 4.6 nM
